# Laboratory results: paper PMC8278588, “Biodegradation of flonicamid by Ensifer adhaerens CGMCC 6315 and enzymatic characterization of the nitrile hydratases involved” (Microbial Cell Factories, 2021)
# System: N#CCNC(=O)c1cnccc1C(F)(F)F
# Test: purified protein
# Settings: 37 °C, 10 min, pH of kinetics not stated, hydration to TFNG-AM
Substance,Km,Vmax
CnhA (Ensifer adhaerens),5.07 mM,9.55 µmol/min/mg
PnhA (Ensifer adhaerens),2.96 mM,88.7 µmol/min/mg
